{"source": "patent US20230128344A1", "about": "(UNIVERSITY OF SOUTHERN CALIFORNIA, published 2023)", "molecular_target": "T1, hCLL-1 on U937 human AML cells (human, UniProt Q5QGZ9 1-265)", "T1 sequence (looked up)": "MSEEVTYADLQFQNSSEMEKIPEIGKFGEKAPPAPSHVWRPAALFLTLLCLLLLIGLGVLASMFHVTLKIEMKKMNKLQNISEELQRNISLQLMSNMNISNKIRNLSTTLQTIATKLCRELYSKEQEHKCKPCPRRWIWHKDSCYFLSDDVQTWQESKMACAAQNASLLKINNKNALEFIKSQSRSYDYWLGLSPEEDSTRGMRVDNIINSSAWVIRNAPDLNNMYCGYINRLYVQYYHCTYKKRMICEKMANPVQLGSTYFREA", "test": "cell-based or functional assay", "data": [{"binder": "DAR2-ARC-ADC (DAR2-ARC-IgG conjugated with 2'-Cl-araNAD+-MMAF) (antibody, 2'-Cl-arabinose-ADP-MMAF on Glu226 of the CD38 domain (CD38 numbering)) heavy: not shown light: ENVLTQSPAIMSASPGEKVTMTCRASSNVISSYVHWYQQRSGASPKLWIYSTSNLASGVPARFSGSGSGTSYSLTISSVEAEDAATYYCQQYSGYPLTFGAGTKLELKRAAAAPSVFIFPPSDEQLKSGTASVVCLLNNFYPREAKVQWKVDNALQSGNSQESVTEQDSKDSTYSLSSTLTLSKADYEKHKVYACEVTHQGLSSPVTKSFNRGEC", "values": [{"measurement": "in vitro cytotoxicity EC50 on U937 (CLL-1+) cells (MTT, 72 hours)", "value": 0.9, "unit": "nM"}]}]}
